We go through four molecules from patent US20100196266A1.

The target in assay [1] is human leukocyte antigen-DR (HLA-DR) on human lymphoma and leukemia cell lines and human lymphocytes (human). The assay is described as follows: indirect FACS, FITC-GAH Fc, WSU-FSCCL cells; none 2.6; control antibody.
For assay [2] the target is unchanged. Briefly: indirect flow cytometry, FITC-GAH Fc, Ramos cells; none 3.1; negative control. Background: A flow cytometer gives signals particle by particle.
Assay [3] has the same target. Briefly: indirect FACS, FITC-GAH Fc, Ramos cells; none 3.1; control antibody.
For assay [4] the target is unchanged. The assay is described as follows: indirect flow cytometry, FITC-GAH Fc, SU-DHL-6 cells; none 4.6; negative control.
The target is the same in assay [5]. Briefly: indirect FACS, FITC-GAH Fc, Raji cells; none 6.8; control antibody.
Assay [6] addresses antigen recognised by L243 on canine lymphocytes and canine lymphoma cells (HLA-DR of the dog) (dog). The assay is described as follows: flow cytometry, dog lymphoma aspirate; none 3.24; control antibody.
Assay [7] shares this target. The assay is described as follows: flow cytometry, dog lymphoma aspirate; none 4.48; control antibody.
Assay [8] has the same target. Briefly: flow cytometry, canine lymphoma aspirate 150836; none 3.2; control antibody.
The target of assay [9] is human leukocyte antigen-DR (HLA-DR) on human lymphoma and leukemia cell lines and human lymphocytes (human). Briefly: indirect FACS, FITC-GAH Fc, SU-DHL-6 cells; none 4.6; control antibody.
Assay [10] has the same target. Briefly: indirect flow cytometry, FITC-GAH Fc, Daudi cells; none 3.2; negative control.
Assay [11] has the same target. Briefly: indirect FACS, FITC-GAH Fc, Namalwa cells; none 2.5; control antibody.
Assay [12] has the same target. The assay is described as follows: indirect flow cytometry, Namalwa cells, FITC-GAH; none 2.52; control antibody.
Assay [13] has the same target. The assay is described as follows: indirect flow cytometry, FITC-GAH Fc, WSU-FSCCL cells; none 2.7; negative control.
The target is the same in assay [14]. Briefly: indirect flow cytometry, FITC-GAH Fc, RL cells; none 2.4; negative control.
Assay [15] has the same target. Briefly: indirect flow cytometry, FITC-GAH Fc, Raji cells; none 6.9; negative control.
Assay [16] has the same target. Briefly: indirect FACS, FITC-GAH Fc, Daudi cells; none 3.1; control antibody.
For assay [17], the target named is antigen recognised by L243 on canine lymphocytes and canine lymphoma cells (HLA-DR of the dog) (dog). The assay is described as follows: flow cytometry, canine lymphoma aspirate 150836; none 4.5; control antibody.
Assay [18] deals with human leukocyte antigen-DR (HLA-DR) on human lymphoma and leukemia cell lines and human lymphocytes (human). Briefly: indirect flow cytometry, FITC-GAH Fc, Namalwa cells; none 2.6; negative control.
The target of assay [19] is antigen recognised by L243 on canine lymphocytes and canine lymphoma cells (HLA-DR of the dog) (dog). The assay is described as follows: flow cytometry, canine lymphoma aspirate 150836; none 3.4.
The target is the same in assay [20]. Briefly: flow cytometry, dog lymphoma aspirate; none 3.37.
For assay [21] the target is unchanged. The assay is described as follows: flow cytometry, dog lymphoma aspirate; none 3.85.
Assay [22] shares this target. The assay is described as follows: flow cytometry, canine lymphoma aspirate 150836; none 3.9.
Assay [23] addresses human leukocyte antigen-DR (HLA-DR) on human lymphoma and leukemia cell lines and human lymphocytes (human). The assay is described as follows: indirect flow cytometry, Namalwa cells, FITC-GAM; none 2.91; control antibody.
Assay [24] has as its target antigen recognised by L243 on canine lymphocytes and canine lymphoma cells (HLA-DR of the dog) (dog). Briefly: flow cytometry, dog lymphoma aspirate; none 4.48.
For assay [25] the target is unchanged. Briefly: flow cytometry, canine lymphoma aspirate 150836; none 4.5.
For assay [26] the target is unchanged. Briefly: flow cytometry, dog lymphoma aspirate; none 3.24.
Assay [27] has the same target. The assay is described as follows: flow cytometry, canine lymphoma aspirate 150836; none 3.2.

B1: hMN-14, labetuzumab (humanized anti-carcinoembryonic antigen IgG1) (antibody, INN chains, looked up, V domains shown)
VH: EVQLVESGGGVVQPGRSLRLSCSASGFDFTTYWMSWVRQAPGKGLEWIGEIHPDSSTINYAPSLKDRFTISRDNAKNTLFLQMDSLRPEDTGVYFCASLYFGFPWFAYWGQGTPVTVSS
VL: DIQLTQSPSSLSASVGDRVTITCKASQDVGTSVAWYQQKPGKAPKLLIYWTSTRHTGVPSRFSGSGSGTDFTFTISSLQPEDIATYYCQQYSLYRSFGQGTKVEIKR
For B1, the Geometric Mean Fluorescence in [1] is 2.66; in assay [2], 3.1; in assay [3] it was 3.13; in assay [4], 4.9; in assay [5], 6.96; in [9] it was 4.94. Further, the Geometric Mean Fluorescence was determined as 3.2 in assay [10]; 2.36 in assay [11]; 2.7 in [13]; 2.8 in [14]; 7 in assay [15]; 3.16 in [16]. This molecule yielded a Geometric Mean Fluorescence in [18] of 2.4. The mean FL in [6] was 3.24; in assay [8], 3.2. In addition, the % Positive in [7] was 4.63%; in [17], 4.6%. The same molecule returned a GEO MEAN Fluorescence in assay [12] of 2.49.

B2: murine monoclonal antibody L243 (mL243) (antibody, V domains shown)
VH: QIQLVQSGPELKKPGETVKISCKASGFTFTNYGMNWVKQAPGKGLKWMGWINTYTREPTYADDFKGRFAFSLETSASTAYLQINNLKNEDTAKYFCARDITAVVPTGFDYWGQGTTLTVSS
VL: DIQMTQSPASLSVSVGETVTITCRASENIYSNLAWYRQKQGKSPQLLVFAASNLADGVPSRFSGSGSGTQYSLKINSLQSEDFGDYYCQHFWTTPWAFGGGTNLEIKR
Consider B2, for which the mean FL in [19] and in [20] was 10.4 each time. In addition, the % Positive in assay [21] and in assay [22] was 77.8% each time.

B3: murine MN-14 (anti-carcinoembryonic antigen) (antibody, from a related filing, V domains shown)
VH: EVKLLESGGGLVQSGGSLKLSCAASGFDFTTYWMSWVRQAPGKGLEWIGEIHPDSSTINYAPSLKDKFIVSRDNAKNTLYLQMSKVRSEDTALYYCASLYFGFPWFAYWGQGTPVTVSA
VL: EIQLTQSHKMMSTSVGDRVSITCKASQDVGTSVAWYQQRPGQSPKLLIYWTSTRHTGVPDRFTGSVSGTDFTLTITNVQSEDLADYFCQQYSLYRSFGGGTKLEIK
Molecule B3 showed a GEO MEAN Fluorescence in assay [23] of 3.32.

B4: hL243γ4P (humanized L243, IgG4/K isotype with hinge mutation Ser241Pro) (antibody, V domains shown)
VH: QVQLQQSGSELKKPGASVKVSCKASGFTFTNYGMNWVKQAPGQGLKWMGWINTYTREPTYADDFKGRFAFSLDTSVSTAYLQISSLKADDTAVYFCARDITAVVPTGFDYWGQGSLVTVSS
VL: DIQLTQSPSSLSASVGDRVTITCRASENIYSNLAWYRQKPGKAPKLLVFAASNLADGVPSRFSGSGSGTDYTFTISSLQPEDIATYYCQHFWTTPWAFGGGTKLQIKR
For the molecule B4, the % Positive came to 26.3% in assay [24] and 26.2% in [25]. The values for the mean FL in assay [26] and in [27] were 5.47 and 5.5, respectively.
